Laboratory results: publication PMC5767323, “Differential NtcA Responsiveness to 2-Oxoglutarate Underlies the Diversity of C/N Balance Regulation in Prochlorococcus” (Frontiers in Microbiology, 2018)

Columns and labels:
[1] = target: T1, NtcA (Prochlorococcus marinus, UniProt Q7VDU1); assay: ITC of NtcA-dsDNA at varied 2OG, ternary equilibrium fit; supported by SPR and EMSA; type: binding
T1 construct: recombinant His6-tagged NtcA (pET-15b)
T1 sequence (Q7VDU1 1-244): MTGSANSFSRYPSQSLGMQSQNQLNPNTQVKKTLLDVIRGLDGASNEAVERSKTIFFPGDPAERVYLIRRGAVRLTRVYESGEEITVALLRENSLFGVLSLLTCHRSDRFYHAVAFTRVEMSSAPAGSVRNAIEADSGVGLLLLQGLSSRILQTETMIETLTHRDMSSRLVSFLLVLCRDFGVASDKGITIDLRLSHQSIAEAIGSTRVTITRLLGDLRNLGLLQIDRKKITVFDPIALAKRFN

[2] = target: T2, NtcA (Prochlorococcus marinus, UniProt Q7TUN1); assay: as above; type: binding
T2 construct: recombinant His6-tagged NtcA (pET-15b)
T2 sequence (Q7TUN1 1-222): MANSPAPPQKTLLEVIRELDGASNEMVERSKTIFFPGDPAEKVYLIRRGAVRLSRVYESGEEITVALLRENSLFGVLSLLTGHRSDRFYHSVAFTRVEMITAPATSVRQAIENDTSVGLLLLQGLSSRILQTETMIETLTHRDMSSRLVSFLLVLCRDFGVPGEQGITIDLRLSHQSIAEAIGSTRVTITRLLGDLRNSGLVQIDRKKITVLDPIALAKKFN

[3] = target: T3, NtcA (Prochlorococcus marinus, UniProt Q7TUG3); assay: ITC of NtcA-dsDNA at varied 2OG, ternary equilibrium fit; type: binding
T3 construct: recombinant His6-tagged NtcA (pET-15b)
T3 sequence (Q7TUG3 1-244): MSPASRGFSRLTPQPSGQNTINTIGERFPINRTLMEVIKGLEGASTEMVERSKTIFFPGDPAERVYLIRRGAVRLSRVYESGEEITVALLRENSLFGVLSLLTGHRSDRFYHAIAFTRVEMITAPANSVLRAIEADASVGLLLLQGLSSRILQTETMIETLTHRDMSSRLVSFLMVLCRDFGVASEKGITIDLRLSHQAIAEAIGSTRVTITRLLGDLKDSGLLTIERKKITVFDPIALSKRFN

[4] = target: T4, NtcA SS120 (Prochlorococcus sp. SS120) (UniProt Q7VDU1); assay: ITC; conditions: ITC: 50 mM Hepes, 350 mM NaCl, pH 7.5, 25 C, 0-10 mM 2OG, SPR: Biacore X, CM5 with neutravidin, buffer not given, EMSA: as Napolitano et al. 2012, 1 uM …
T4 sequence: T1 sequence (Q7VDU1 1-244)

[5] = target: T5, NtcA MIT9313 (Prochlorococcus sp. MIT9313, UniProt Q7TUN1 1-222); assay: ITC; saturating 2OG (Kd,eff = Kd/alpha, extrapolated from fit); ITC: 50 mM Hepes, 350 mM NaCl, pH 7.5, 25 C, 0-10 mM 2OG; SPR: Biacore X, CM5 with neutravidin, 25 C, buffer not given; EMSA: as Napolitano et al. 2012, 1 uM NtcA; conditions: protein: recombinant; tags: His6 (pET-15b); chain copies: 2; blunt
T5 sequence: T2 sequence (Q7TUN1 1-222)

[6] = target: T6, NtcA MED4 (Prochlorococcus sp. MED4, UniProt Q7TUG3 1-244); assay: as above; conditions: protein: recombinant; tags: His6 (pET-15b); chain copies: 2; blunt
T6 sequence: T3 sequence (Q7TUG3 1-244)

[7] = target: T7, NtcA SS120 (Prochlorococcus sp. SS120, UniProt Q7VDU1 1-244); assay: as above; conditions: protein: recombinant; tags: His6 (pET-15b); chain copies: 2; blunt
T7 sequence: T1 sequence (Q7VDU1 1-244)

[8] = target: T6, NtcA MED4; assay: ITC; independent of 2OG; ITC: 50 mM Hepes, 350 mM NaCl, pH 7.5, 25 C, 0-10 mM 2OG; SPR: Biacore X, CM5 with neutravidin, 25 C, buffer not given; EMSA: as Napolitano et al. 2012, 1 uM NtcA; conditions: protein: recombinant; tags: His6 (pET-15b); chain copies: 2; blunt

In the case of `O=C(O)CCC(=O)C(=O)O` [2OG, 2-oxoglutarate], the Kd [1] is reported as 42000 ± 3000 µM, the Kd [2] is reported as 19000 ± 2000 µM and the Kd [3] is reported as 36000 ± 3000 µM.

With “CCAATAAGCCCCACACGGCATTATTG (double strand) [DNA4, glnA promoter SS120 mutated]” the Kd [4] was 10 µM.

B1: DNA1, glnA promoter MIT9313 wt (dsDNA)
DNA 1: TAGAAGGTACCTGTTGCTACAAAAAG
DNA 2: CTTTTTGTAGCAACAGGTACCTTCTA
Work on B1 yielded a Kd [5] of 0.06 ± 0.01 µM.

B2: DNA5, glnA promoter MED4 wt (dsDNA)
DNA 1: AAAAAGTTACCTTTGATACATAAT
DNA 2: ATTATGTATCAAAGGTAACTTTTT
With B2 the Kd [6] was 0.5 ± 0.1 µM.

B3: DNA3, glnA promoter SS120 wt (dsDNA)
DNA 1: CCAATAGTCACAAAAAGTACTTATTG
DNA 2: CAATAAGTACTTTTTGTGACTATTGG
B3 was tested, and the Kd [7] was 0.8 ± 0.2 µM.

B4: DNA6, glnA promoter MED4 mutated (dsDNA)
DNA 1: AAAAACTAACCTTTGACTGATAAT
DNA 2: ATTATCAGTCAAAGGTTAGTTTTT
B4 showed a Kd [8] of 9.5 ± 0.9 µM.
